According to PMC7840056:

Assays:
Experiment in all cases: bacterial two-hybrid (BACTH), ß-galactosidase activity
[1] = molecular target: SlyD wild type fused to the T25 fragment of Bordetella pertussis adenylate cyclase (pNKT25) (UniProt O25748); conditions: E. coli strain BTH101; each measurement was performed three times; parent: est. 2500; read off a plot
[2] = molecular target: NiuD permease subunit of the NiuBDE nickel ABC transporter, full length, fused to the T18 fragment (pUT18); conditions: E. coli strain BTH101; each measurement was performed three times; parent: est. 2400; read off a plot
[3] = molecular target: NiuDΔ7, C-terminally truncated NiuD fused to the T18 fragment; conditions: E. coli strain BTH101; each measurement was performed three times; parent: est. 2500; read off a plot

NiuDΔ7, C-terminally truncated NiuD fused to the T18 fragment P203V
response [1]: 1500 Miller Units

NiuDΔ7, C-terminally truncated NiuD fused to the T18 fragment R208G; W209G; R210G
response [1]: 30 Miller Units

NiuDΔ7, C-terminally truncated NiuD fused to the T18 fragment R208Q
response [1]: 95 Miller Units

NiuDΔ7, C-terminally truncated NiuD fused to the T18 fragment R208S
response [1]: 1000 Miller Units

NiuDΔ7, C-terminally truncated NiuD fused to the T18 fragment R210G
response [1]: 120 Miller Units

NiuDΔ7, C-terminally truncated NiuD fused to the T18 fragment W209F
response [1]: 1200 Miller Units

NiuDΔ7, C-terminally truncated NiuD fused to the T18 fragment W209G
response [1]: 720 Miller Units

SlyD wild type fused to the T25 fragment of Bordetella pertussis adenylate cyclase (pNKT25) (from UniProt O25748) I47S; Y73A; F137Y
response [2]: 1800 Miller Units | response [3]: 2100 Miller Units
